# From patent US20060228367A1 (AstraZeneca / MedImmune, published 2006)
# Where two headings read alike, the source gives them in different places.
# Tests used:
# [1] = biological target: T1, F protein of hMPV strain NL\1\99 (subtype B1), on virus (human metapneumovirus, isolate NL/1/99, UniProt Q6WB98 19-539); experiment: cell-based or functional assay
# [2] = biological target: T2, F protein of hMPV strain NL\1\00 (subtype A1), on virus (human metapneumovirus, isolate NL/1/00, UniProt Q6WB98 19-538); experiment: cell-based or functional assay
# [3] = biological target: T3, F protein of hMPV strain NL\1\94 (subtype B2), on virus (human metapneumovirus, isolate NL/1/94, UniProt Q6WB98 19-539); experiment: cell-based or functional assay
# [4] = biological target: T4, F protein of hMPV strain NL\17\00 (subtype A2), on virus (human metapneumovirus, isolate NL/17/00, UniProt Q6WB98 19-539); experiment: cell-based or functional assay
# [5] = biological target: T1, F protein of hMPV strain NL\1\99 …; experiment: cell-based or functional assay; remark: listed apart in the source
# [6] = biological target: T2, F protein of hMPV strain NL\1\00 …; experiment: cell-based or functional assay; remark: listed apart in the source
# [7] = biological target: T3, F protein of hMPV strain NL\1\94 …; experiment: cell-based or functional assay; remark: listed apart in the source
# [8] = biological target: T4, F protein of hMPV strain NL\17\00 …; experiment: cell-based or functional assay; remark: listed apart in the source
# [9] = biological target: T5, soluble histidine-tagged hMPV F protein from NL\1\99 (human metapneumovirus, isolate NL/1/99, UniProt Q6WB98 19-490); experiment: Biacore SPR (summary table)
# T5 construct: also called sFNL\1\99; soluble FNL\1\99
# [10] = biological target: T6, soluble histidine-tagged hMPV F protein from NL\1\00 (human metapneumovirus, isolate NL/1/00, UniProt Q6WB98 19-490); experiment: Biacore SPR (summary table)
# T6 construct: the reverse primer ends the F part at ...AEKGNTG before the tag; also called sFNL\1\00; soluble FNL\1\00
# [11] = biological target: T6, soluble histidine-tagged hMPV F protein …; experiment: Biacore SPR; F-00-1 immobilised at 134 RU, mAb injected
# [12] = biological target: T5, soluble histidine-tagged hMPV F protein …; experiment: Biacore SPR; F-99-1 immobilised at 80 RU, mAb injected
# [13] = biological target: T1, F protein of hMPV strain NL\1\99 …; experiment: cell-based or functional assay; remark: listed apart in the source
# [14] = biological target: T2, F protein of hMPV strain NL\1\00 …; experiment: cell-based or functional assay; remark: listed apart in the source
# [15] = biological target: T3, F protein of hMPV strain NL\1\94 …; experiment: cell-based or functional assay; remark: listed apart in the source
# [16] = biological target: T4, F protein of hMPV strain NL\17\00 …; experiment: cell-based or functional assay; remark: listed apart in the source
# [17] = biological target: T5, soluble histidine-tagged hMPV F protein …; experiment: Biacore SPR; F-99-1 immobilised at 300 RU, mAb injected
# [18] = biological target: T6, soluble histidine-tagged hMPV F protein …; experiment: Biacore 3000 SPR; antigen immobilised on CM5 at 134 RU, mAb injected
# [19] = biological target: T5, soluble histidine-tagged hMPV F protein …; experiment: Biacore SPR (comparison table; virus type B)
# [20] = biological target: T1, F protein of hMPV strain NL\1\99 …; experiment: cell-based or functional assay; remark: listed apart in the source
# [21] = biological target: T2, F protein of hMPV strain NL\1\00 …; experiment: cell-based or functional assay; remark: listed apart in the source
# [22] = biological target: T5, soluble histidine-tagged hMPV F protein …; experiment: Biacore 3000 SPR; antigen immobilised on CM5 at 80 RU, mAb injected
# [23] = biological target: T6, soluble histidine-tagged hMPV F protein …; experiment: Biacore SPR (comparison table; virus type A)
# [24] = biological target: T5, soluble histidine-tagged hMPV F protein …; experiment: Biacore SPR; average of the two F-99-1 surfaces
# [25] = biological target: T5, soluble histidine-tagged hMPV F protein …; experiment: Biacore SPR; F-99-1 immobilised at 146 RU, mAb injected
Binder,IC50 (neutralization titer) [1] [µg/mL],IC50 (neutralization titer) [2] [µg/mL],IC50 (neutralization titer) [3] [µg/mL],IC50 (neutralization titer) [4] [µg/mL],IC50 (virus neutralization) [5] [µg/mL],IC50 (virus neutralization) [6] [µg/mL],IC50 (virus neutralization) [7] [µg/mL],IC50 (virus neutralization) [8] [µg/mL],Kd [9] [nM],Kd [10] [nM],Kd [11] [nM],koff [11] [s⁻¹],kon [11] [M⁻¹ s⁻¹],Kd [12] [nM],koff [12] [s⁻¹],kon [12] [M⁻¹ s⁻¹],IC50 (neutralization titer) [13] [nM],IC50 (neutralization titer) [14] [nM],IC50 (neutralization titer) [15] [nM],IC50 (neutralization titer) [16] [nM],also measured
"monoclonal antibody 168-A5-338-284 (antibody, V domains shown, Mouse hybridoma antibody purified on protein A; also called mAb338) VH: QVQLKESGPGLVAPSQSLSITCTVSGFSLSSYGVHWVRQSPGKGLEWLGVMWGDGSTNYHSGLISRLTISKDSSKSQVFLKLNSLQTDDTATYYCGKSFGVYAVDYWGQGTSVTVSS VL: DIQMTQTTSSLSASLGDRVTINCRASQDVNNYLNWYQQKPDGTVKLLIYYTSMLHSGVPSRFSGSGSETDYSLTITNLEQEDIATYFCQQGETLPPTFGGGTKVEIK",0.03,0.375,0.165,0.81,0.03,0.38,0.17,0.8,1.4,1.7,1.74,0.000276,158000,1.42,0.000272,192000,0.2,2.5,1.1,5.4,Kd [17]: 2.18 nM; koff [17]: 0.000293 s⁻¹; kon [17]: 134000 M⁻¹ s⁻¹; Kd [18]: 1.74 nM; koff [18]: 0.000276 s⁻¹; kon [18]: 158000 M⁻¹ s⁻¹; Kd [19]: 1.42 nM; kon [19]: 192000 M⁻¹ s⁻¹; IC50 in vitro neutralization [20]: 0.03 µg/mL; IC50 in vitro neutralization [21]: 0.4 µg/mL; Kd [22]: 1.42 nM; koff [22]: 0.000272 s⁻¹; kon [22]: 192000 M⁻¹ s⁻¹; Kd [23]: 1.74 nM; kon [23]: 158000 M⁻¹ s⁻¹; Kd [24]: 1.73 nM; koff [24]: 0.000282 s⁻¹; kon [24]: 163000 M⁻¹ s⁻¹
"monoclonal antibody 168-A5-234-114 (antibody, V domains shown, Mouse hybridoma antibody purified on protein A; also called mAb234; mAb 234) VH: QVQLKESGPGLVAPSQSLSITCTVSGFSLTDYGVSWVRQPPGKGLEWLGVIWGDGNTNYHSALISRLSISKDNSKSQVFLKLNSLQTDDTATYYCGKSFGVYAMDYWGQGTSVTVSS VL: EIQMTQTTSSLSASLGDRVTINCRTSQDTNNYINWYQQKPDGTVKLLIYYTSMLHSGVPSRFSGSGSGTDYSLTISNLEQEDIATYFCQQGDTLPPTFGGGTKVEIK",0.0075,0.585,0.18,1.16,0.01,0.59,0.18,1.2,2.4,4.5,4.49,0.000352,78300,2.41,0.000463,192000,0.05,3.9,1.2,7.7,Kd [25]: 3.83 nM; koff [25]: 0.000302 s⁻¹; kon [25]: 78900 M⁻¹ s⁻¹; Kd [18]: 4.49 nM; koff [18]: 0.000352 s⁻¹; kon [18]: 78300 M⁻¹ s⁻¹; Kd [19]: 2.41 nM; kon [19]: 192000 M⁻¹ s⁻¹; IC50 in vitro neutralization [20]: 0.01 µg/mL; IC50 in vitro neutralization [21]: 0.6 µg/mL; Kd [22]: 2.41 nM; koff [22]: 0.000463 s⁻¹; kon [22]: 192000 M⁻¹ s⁻¹; Kd [23]: 4.49 nM; kon [23]: 783000 M⁻¹ s⁻¹; Kd [24]: 2.83 nM; koff [24]: 0.000382 s⁻¹; kon [24]: 135000 M⁻¹ s⁻¹
